# How the values were obtained:
# [1] = test system: peptide 4 (βc peptide) bound to SPA beads; assay: SPA competition: unlabeled JAK2 against labeled JAK2/NJAK2 for peptide 4 bound to SPA beads; assay type: binding, human
# human JAK2 = target: T1, human JAK2 (Homo sapiens, UniProt O60674); assay: SPA: binding of 3H-JAK2 to βc peptides on streptavidin-coated beads; conditions: JAK2 from 32.5 nM to 16.25 nM; FIG. 14
# T1 construct: NJAK2 = N-terminal 294 residues
# Description: Cells were lysed by dounce homogenization (20 strokes) in 1X phosphate buffered saline (PBS), pH 7.5 at 4 C. […] For some experiments, the JAK2 protein (0.15 mg/ml), aliquoted into 7 equivalent tubes, was then subjected to ultracentrifugation in an Airfuge using an A-110 rotor at an average of 164,000×g for a period of 6 hours at ambient temperature. At zero time, and at each subsequent hour thereafter, a tube of JAK2 was removed for analyses (ELISA, SDS polyacrylamide gel electrophoresis, and Western blotting).
# Three different labeling reactions were done using ^3 H-N-succinimidyl propionate (^3 H-NSP, Amersham Life Sciences, Arlington Heights, Ill.). One reaction was done using 0.5 mg of purified JAK2 in 0.1 M borate buffer, pH 8.5, with a reaction volume of 150 μl and an incubation time of one hour on ice with dried 1 mCi of ^3 H-NSP (toluene was removed using a stream of nitrogen). […] Another reaction was done using the buffer 0.1 M sodium phosphate, pH 8.0, and a similar volume as before. One milligram of JAK2 in 1.2 ml of phosphate buffer was incubated for three hours on ice. […]
# Triplicate reactions were done for each data point. […] The plates were then read on a MicroBeta (Wallac) set to read scintillation due to tritium.
# Either ^3 H-JAK2 or ^3 H-NJAK2 was added to the wells and, after incubation, the signals measured. […]
# [2] = JAK2 remaining soluble after ultracentrifugation (ELISA) / aggregation; assay type: physicochemical
# Description: Recombinant JAK2 protein containing the Flag affinity label ([…]) [SEQ ID NO:20] was expressed in either SF9 or HI-5 cells as described. Cells were lysed by dounce homogenization (20 strokes) in 1X phosphate buffered saline (PBS), pH 7.5 at 4 C. Clarified extract was passed through an anti-Flag immunoaffinity column (Kodak, New Haven, Conn.) and purified recombinant JAK2 was eluted by competition with a solution of Flag peptide at a concentration of 250 ug/ml in 1×PBS. Purity was characterized by a single band on SDS polyacrylamide gels. For some experiments, the JAK2 protein (0.15 mg/ml), aliquoted into 7 equivalent tubes, was then subjected to ultracentrifugation in an Airfuge using an A-110 rotor at an average of 164,000×g for a period of 6 hours at ambient temperature. At zero time, and at each subsequent hour thereafter, a tube of JAK2 was removed for analyses (ELISA, SDS polyacrylamide gel electrophoresis, and Western blotting).
# Aliquots of the above supernatants were removed and subjected to an ELISA assay. Each solution was diluted 1:50 with 0.1M sodium carbonate, pH 9.0, and applied in multiple concentrations to a 96 well plate. After an overnight incubation, each well was washed with 0.1% BSA in 1×PBS, pH 7.5 (wash buffer), followed by continued incubation for an additional hour at 4 C. The wells were then incubated with 150 ul of C20 anti-JAK2 antibody (Santa Cruz Biotechnology, Santa Cruz, Calif.) in wash buffer for 1 hour at 4 C., followed by extensive washes with wash buffer. Secondary antibody (150 ul of alkaline phosphatase labeled goat anti-rabbit IgG (Promega, Madison, Wis.) at a dilution of 1:2000) was applied for 1 hour at 4 C., followed by extensive washes with buffer. Finally, wells were incubated with 0.1 M Tris HCl, 5 mM MgCl2, pH 9.5, and then with the same buffer (150 ul) containing 5 mg/ml p-nitrophenylphosphate (pNPP). Color formation was read by a SpectraMax 250 plate reader set at an absorbance of 405 nm. The linear phase of each concentration curve was chosen for each of the time points (0,1,2,3,4,5,and 6 hours of ultracentrifugation) in order to calculate the relative amount of recombinant JAK2 remaining in the supernatant of each fraction.
# To see whether more highly aggregated JAK2 could be separated by ultracentifugation from less aggregated or monomeric JAK2, a sample of freshly purified JAK2 at a defined concentration was centrifuged in an airfuge as described in Materials and Methods. Samples were taken at 7 different time points over a 6 hour period to assess the amount of JAK2 which remained in the supernatant phase. After 1 hour at 164,000×g, 40 to 50% of the original JAK2 was detected, a value which remained relatively constant for up to 5 additional hours in this experiment. […] Since the supernatant was removed from below the meniscus by pipetting, a determination of the molecular weight could not be established in this experiment.
signal obtained on lowering final JAK2 concentration (human JAK2),"competition of labeled JAK2 binding ([1]; 5-fold excess unlabeled JAK2, peptide 4)","competition of labeled NJAK2 binding ([1]; 10-fold excess unlabeled JAK2, peptide 4)",Molecule,"apparent Kd versus more aggregated JAK2 ([1]; inferred from competition of supernatant, FIG. 18)","competition with labeled JAK2 versus starting material ([1]; supernatant after ultracentrifugation, peptide 4 on beads, FIG. 18)",% JAK2 Remaining ([2]; 0 hours ultracentrifugation) [%],"% JAK2 Remaining ([2]; 1 hour ultracentrifugation, 164,000×g) [%]","% JAK2 Remaining ([2]; 2 hours ultracentrifugation, 164,000×g) [%]","% JAK2 Remaining ([2]; 3 hours ultracentrifugation, 164,000×g) [%]","% JAK2 Remaining ([2]; 4 hours ultracentrifugation, 164,000×g) [%]","% JAK2 Remaining ([2]; 5 hours ultracentrifugation, 164,000×g) [%]","% JAK2 Remaining ([2]; 6 hours ultracentrifugation, 164,000×g) [%]","original JAK2 detected in supernatant ([2]; after 1 hour at 164,000×g, relatively constant up to 5 additional hours) [%]",JAK2 remaining soluble as defined by ELISA ([2]; after ultracentrifugation) [%],aggregation by size exclusion chromatography ([2]; data not shown)
–,–,–,"JAK2 from the supernatant: supernatant after 1 hour of ultracentrifugation of JAK2 (protein, UniProt O60674 1-1132, looked up) Tyrosine-protein kinase JAK2: MGMACLTMTEMEGTSTSSIYQNGDISGNANSMKQIDPVLQVYLYHSLGKSEADYLTFPSGEYVAEEICIAASKACGITPVYHNMFALMSETERIWYPPNHVFHIDESTRHNVLYRIRFYFPRWYCSGSNRAYRHGISRGAEAPLLDDFVMSYLFAQWRHDFVHGWIKVPVTHETQEECLGMAVLDMMRIAKENDQTPLAIYNSISYKTFLPKCIRAKIQDYHILTRKRIRYRFRRFIQQFSQCKATARNLKLKYLINLETLQSAFYTEKFEVKEPGSGPSGEEIFATIIITGNGGIQWSRGKHKESETLTEQDLQLYCDFPNIIDVSIKQANQEGSNESRVVTIHKQDGKNLEIELSSLREALSFVSLIDGYYRLTADAHHYLCKEVAPPAVLENIQSNCHGPISMDFAISKLKKAGNQTGLYVLRCSPKDFNKYFLTFAVERENVIEYKHCLITKNENEEYNLSGTKKNFSSLKDLLNCYQMETVRSDNIIFQFTKCCPPKPKDKSNLLVFRTNGVSDVPTSPTLQRPTHMNQMVFHKIRNEDLIFNESLGQGTFTKIFKGVRREVGDYGQLHETEVLLKVLDKAHRNYSESFFEAASMMSKLSHKHLVLNYGVCVCGDENILVQEFVKFGSLDTYLKKNKNCINILWKLEVAKQLAWAMHFLEENTLIHGNVCAKNILLIREEDRKTGNPPFIKLSDPGISITVLPKDILQERIPWVPPECIENPKNLNLATDKWSFGTTLWEICSGGDKPLSALDSQRKLQFYEDRHQLPAPKWAELANLINNCMDYEPDFRPSFRAIIRDLNSLFTPDYELLTENDMLPNMRIGALGFSGAFEDRDPTQFEERHLKFLQQLGKGNFGSVEMCRYDPLQDNTGEVVAVKKLQHSTEEHLRDFEREIEILKSLQHDNIVKYKGVCYSAGRRNLKLIMEYLPYGSLRDYLQKHKERIDHIKLLQYTSQICKGMEYLGTKRYIHRDLATRNILVENENRVKIGDFGLTKVLPQDKEYYKVKEPGESPIFWYAPESLTESKFSVASDVWSFGVVLYELFTYIEKSKSPPAEFMRMIGNDKQGQMIVFHLIELLKNNGRLPRPDGCPDEIYMIMTECWNNNVNQRPSFRDLALRVDQIRDNMAG",higher apparent Kd than the more aggregated JAK2,competed less effectively than the starting material,–,–,–,–,–,–,–,–,–,–
decreases significantly,competed significantly,reduced almost to background,"JAK2: Recombinant JAK2 protein containing the Flag affinity label, expressed in SF9 or HI-5 cells (protein, Flag tag) MACLTMTEMEGTSTSSIYQNGDISGNANSMKQIDPVLQVYLYHSLGKSEADYLTFPSGEYVAEEICIAASKACGITPVYHNMFALMSETERIWYPPNHVFHIDESTRHNVLYRIRFYFPRWYCSGSNRAYRHGISRGAEAPLLDDFVMSYLFAQWRHDFVHGWIKVPVTHETQEECLGMAVLDMMRIAKENDQTPLAIYNSISYKTFLPKCIRAKIQDYHILTRKRIRYRFRRFIQQFSQCKATARNLKLKYLINLETLQSAFYTEKFEVKEPGSGPSGEEIFATIIITGNGGIQWSRGKHKESETLTEQDLQLYCDFPNIIDVSIKQANQEGSNESRVVTIHKQDGKNLEIELSSLREALSFVSLIDGYYRLTADAHHYLCKEVAPPAVLENIQSNCHGPISMDFAISKLKKAGNQTGLYVLRCSPKDFNKYFLTFAVERENVIEYKHCLITKNENEEYNLSGTKKNFSSLKDLLNCYQMETVRSDNIIFQFTKCCPPKPKDKSNLLVFRTNGVSDVPTSPTLQRPTHMNQMVFHKIRNEDLIFNESLGQGTFTKIFKGVRREVGDYGQLHETEVLLKVLDKAHRNYSESFFEAASMMSKLSHKHLVLNYGVCVCGDENILVQEFVKFGSLDTYLKKNKNCINILWKLEVAKQLAWAMHFLEENTLIHGNVCAKNILLIREEDRKTGNPPFIKLSDPGISITVLPKDILQERIPWVPPECIENPKNLNLATDKWSFGTTLWEICSGGDKPLSALDSQRKLQFYEDRHQLPAPKWAELANLINNCMDYEPDFRPSFRAIIRDLNSLFTPDYELLTENDMLPNMRIGALGFSGAFEDRDPTQFEERHLKFLQQLGKGNFGSVEMCRYDPLQDNTGEVVAVKKLQHSTEEHLRDFEREIEILKSLQHDNIVKYKGVCYSAGRRNLKLIMEYLPYGSLRDYLQKHKERIDHIKLLQYTSQICKGMEYLGTKRYIHRDLATRNILVENENRVKIGDFGLTKVLPQDKEYYKVKEPGESPIFWYAPESLTESKFSVASDVWSFGVVLYELFTYIEKSKSPPAEFMRMIGNDKQGQMIVFHLIELLKNNGRLPRPDGCPDEIYMIMTECWNNNVNQRPSFRDLALRVDQIRDNMAGDYKDDDDKN",–,–,100,46.0,39.6,32.5,43.7,44.1,41.3,40 to 50,50,exhibited degrees of aggregation
